Paper PMC5095173, “Disulfide-activated protein kinase G Iα regulates cardiac diastolic relaxation and fine-tunes the Frank–Starling response” (Nature Communications, 2016)

B1: Map4 pT899 (protein, UniProt Q5M7W5 2-1057, looked up)
Microtubule-associated …: ADLSLVDALTEPPPEIEGEIKRDFMAALEAEPYDDIVGETVEKTEFIPLLDGDEKSGNSESKRKPCVDTSQVEDIPSSKPTLLANGDHGVEGNNTTGSPTDFLVENVDYEDYQNSQSWPEDASFCFQPQQVLDTNQADPFNVHHDDGLADLLFVSSGPTNASAFIEENNPLEDSYGVLPCDSFAPTAVVSQEWSVGAPDSPHSEPCVSPEVTIETAQPATELSKAVDLESVKEQLPAKALEMMAGQTTDAVPSKESEGSPDTDAAPGPDTDVTLTKDIEESSSPDVISANVTQPFTESDMFLTQEMELLIGTEAAQVKDTMSSVEPDISSAKNTAPPTEEETVPGKDMTFPKEAETALPIEMDLAPPEDVALPKETELELAPAAGTAPLSETEVALAKDEEPSTGIPAAQEMLLSSETEVVLPSDSIMTLTKEVTVPLEAAGPLVSDMTAILETEMTLGGGTATPTETKLGKVKDMAPLPESEVALGKDVVTLPETKVTEFNNVTPLSEEEVASIKDVSPSPETETAKNADLHSGTELTLDNSMTPPSDPALPLETKVATVQIKDKETVQTQEELSEDSQLESVQLEGQSAVPPCTISPEPVKAADQKSTLPVDEGSPLEKLEQKETSGSQPPELCSGVSRQEEGKAAVGLTGNDIATPPNKELPPSPEKKAKPLATTQPAKTSTSKAKIQPTSLPKQPAPTTSGGLNKKPMSLASGSVPAAPHKRPAAATATARPSTLPARDLKPKPITETKVAEKRTSPSKPSSAPALRPGPKTTPTISKATSPSTLVSTGSSSRSPSTTLPKRPTTTKTEGKPADVKRMTAKSATADLSRSKTTSASSVKRNTTPTGATPPAGMASTRVKPMSAPCRSSVALSVDKKPTSTKPSSSAPRVSRLATTVSAPDLKSVRSKVGSTENMKHQPGGGRVQIQNKKVDISKVSSKCGSKANIKHKPGGGDVKIESQKLNFKEKAQAKVGSLDNVGHLPAGGTVKTEGGGSEAPPCPGPPAGEEPAIPEAAPDAGAPTSASGLSGHTTLSGGGDQREPQTLDSQIQETSI
modifications: phosphorylated at T899
B2: Ptrf pT304 (protein, UniProt P85125 1-392, looked up)
Caveolae-associated protein 1: MEDVTLHIVERPYSGYPDASSEGPEPTPGEARATEEPSGTGSDELIKSDQVNGVLVLSLLDKIIGAVDQIQLTQAQLEERQAEMEGAVQSIQGELSKLGKAHATTSNTVSKLLEKVRKVSVNVKTVRGSLERQAGQIKKLEVNEAELLRRRNFKVMIYQDEVKLPAKLSVSKSLKESEALPEKEGDELGEGERPEEDAAAIELSSDEAVEVEEVIEESRAERIKRSGLRRVDDFKKAFSKEKMEKTKVRTRENLEKTRLKTKENLEKTRHTLEKRMNKLGTRLVPVERREKLKTSRDKLRKSFTPDHVVYARSKTAVYKVPPFTFHVKKIREGEVEVLKATEMVEVGPDDDEVGAERGAETDLLRGSSPDVHTLLEITEESDAVLVDKSDSD
modifications: phosphorylated at T304
B3: Serbp1 pS391 (protein, UniProt Q9CY58 1-407, looked up)
SERPINE1 mRNA-binding protein …: MPGHLQEGFGCVVTNRFDQLFDDESDPFEVLKAAENKKKEAGGGGVGGPGAKSAAQAAAQTNSNAAGKQLRKESQKDRKNPLPPSVGVADKKEETQPPVALKKEGIRRVGRRPDQQLQGDGKLIDRRAERRPPRERRFEKPLEEKGEGGEFSVDRPIIERPIRGRGGLGRGRGGRGRGMGRGDGFDSRGKREFDRHSGSDRSSFSHYSGLKHEDKRGGSGSHNWGTVKDELTESPKYIQKQISYNCSDLDQSNVTEETPEGEEHPVADTENKENEVEEVKEEGPKEMTLDEWKAIQNKDRAKVEFNIRKPNEGADGQWKKGFVLHKSKSEEAHAEDSVMDHHFRKPANDITSQLEINFGDLGRPGRGGRGGRGGRGRGGRPNRGSRTDKSSASAPDVDDPEAFPALA
modifications: phosphorylated S391
B4: Micall1 pS307 (protein, UniProt D3ZQL6 1-855, looked up)
MICAL-like protein 1: MAGPRGALLAWCRRQCEGYRGVDIRDLSSSFRDGLAFCAILHRHRPDLLDFQSLSKENVFENNRLAFEVAEKELGIPALLDPNDMVSMSVPDCLSIMTYVSQYYNHFTSSGQAAASPPKPGKDPAAPSPTSTSPAVQPGEEAQGDDLSPDSLSEQGKPQPPSSACAACGQRVHLVQRYLAEGRLYHRHCFRCRQCSSTLVPGSYSSGPEEGTFVCAERCTRLGLGGRSGTRPLSLQKQQPAAAAEAKDGEDSDLSKSVVVVAAEADGLQASSEVQPHTLTKPPLPSKPQDLASPPVSRPTPAPRKASESSALTPPTPRPRSSLQQDGMVEQSVSGDLVNGRLQELPVPKPRGTPKLSERMTAPRKDPPWITLVQTEPKKKPAPLPPSSGPGPLSQASRQVENGGLEEKTQKSPAAEPEPKPYNPFEEEEEEEEASVPAVPSPAPAPPETTPKSLHPWYNITPTSSPKTKKRPAPKAPSASPLVLHASRLSHSEPPSATPSPALSVESLSSESSSHTANTEPSEPPAVPKSSSDPAVHVPGTPGTSANSVTPSAHSSLSSSGELGQPSGEQMPQARTRGSPGTHSTKPFSGATPTPFLLAGDQKSPAPPMGSSSPQMLIKSSCKENPFNRKPSPSTSPTVRKATKGAKPVRPPAPGHGFPLIKRKVQADQYIPEEDIYGEMDSIERQLDALEHSGVLLEEKLRGGANEGSEDDMLVDWFKLIHEKHLLVRRESELIYVFKQQNLEQRQADVEFELRCLLNKPEKDWTDDDRAREKVLMQELMTLIEQRDAIVNCLDEDRQREEEEDKMLETMIKKKDFQREAESDSKKKGKFKTMKVLKLLGNKRDAKSKAPTGKS
modifications: phosphorylated at S307
B5: Murc pS257 (protein, UniProt B1PRL5 1-362, looked up)
Caveolae-associated protein 4: MEHNGSASNAGKIHQNRLSSVTEDEDQDAALTIVTVLDRVATVVDSVQASQKRIEERHREMGNAIKSVQIDLLKLSQSHSNTGYVVNKLFEKTRKVSAHIKDVKARVEKQQVRVTKVETKQEEIMKKNKFRVVIFQEDVPCPASLSVVKDRSLPENEEEAEEVFDPPIDLSSDEEYYVEESRSARLRKSGKEHIDHIKKAFSKENMQKTRQNFDKKVSGIRTRIVTPERRERLRQSGERLRQSGERLRQSGERFKKSISNATPSKEAFKIRSLRKPKDPKAEGQEVDRGMGVDIISGSLALGPIHEFHSDGFSETEKEVTKVGYIPQEGGDPPTPEPLKVTFKPQVRVEDDESLLLELKQSS
modifications: phosphorylated at S257
B6: Mylk3 pS444 (protein, UniProt E9PT87 1-786, looked up)
Myosin light chain kinase 3: MSGVSEEDPEGLGPQGLPALGGACLVTVDKKLNVLTEKVDRLLHFQEDVTEKLQCVCQGMDHLEQGLHRLEASQELGLAGPGSTSPAAAQAAWPEVLELVRAVRQEGAQHGARLEALFKMVVAVDRAITLVGSTIQNSKVDDFILQGTVPWRKGSLADGPEENKEQAEVAGVKPKHVLNTGSVQAATSRALWEESQKQDTPVGTVEGLPLIIDTSLKGADLTQAGASLRQGVEALDPGQEPPPTEAESRLPALASEDTGTTLELSVAIDRISEVLTSLRMSQSAGEGTSSSKPDCSEPGPQPLGPLTTDSDIHSDEGLPRISVRMREMTTPEELFETQGGSPIGSAEAPGPGTVLEDQIPKGARPFPPLPKRSCNNGGASAEEATGPGAEPIRGPSLVTRDWRDEPVGTTDLQQGRDPGAVSPEPGKDHAAQGPGRTEAGRRVSSAAEAAIVVLDDSAAPPAPFEHRVVSIKDTLISTSYTVSQHEVLGGGRFGQVHRCTERSTGLALAAKIIKVKNIKDREDVKNEINIMNQLSHVNLIQLYDAFESKNSFTLIMEYVDGGELFDRITDEKYHLTELDVVLFTRQICEGVHYLHQHYILHLDLKPENILCVSQTGHQIKIIDFGLARRYKPREKLKVNFGTPEFLAPEVVNYEFVSFPTDMWSVGVITYMLLSGLSPFLGETDAETMNFIVNCSWDFDADTFKGLSEEAKDFVSRLLVKEKSCRMSATQCLKHEWLNHLIAKASGSNVRLRSQLLLQKYMAQRKWKKHFHVVTAVNRLRKFPTCP
modifications: phosphorylated at S444

What was measured:
[1] = test system: PKGIα (analogue-sensitive C42S/M438G), cGMP-activated; assay: Chemical genetic phosphoproteomic screen, cGMP-activated PKGIα C42S/M438G versus unactivated control; type: biochemical, human PKGIα; substrates in rat heart homogenate; conditions: control = PKGIα C42S/M438G
Summary of the method: (§1)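 Substrates in rat left-ventricle homogenate (20 mg ml) are labelled by engineered Met438Gly PKGIα given a bulky N6-alkylated ATPγS analogue, either as disulfide-activated M438G (oxidized, DTT-free) or as cGMP-activated C42S/M438G. Covalent capture and LC–MS/MS identify sites relative to unactivated kinase.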

[2] = test system: PKGIα (analogue-sensitive M438G), disulfide-activated; assay: Chemical genetic phosphoproteomic screen, disulfide-activated PKGIα M438G versus unactivated control; type: biochemical, human PKGIα; substrates in rat heart homogenate; conditions: control = PKGIα C42S/M438G
Summary of the method: as §1

| Molecule | log2 fold change cGMP vs Control [1] | log2 fold change Disulfide vs Control [2] |
| --- | --- | --- |
| B1 | 3.693 | 1.73 |
| B2 | 3.045 | 1.3031 |
| B3 | 6.458 | 3.516 |
| B4 | 2.266 | 1.417 |
| B5 | 1.807 | 0.9013 |
| B6 | 3.077 | 0.1624 |
